According to US12721795B2, “Personal dental care product for preventing demineralisation” (CREDENTIS AG, priority 2019, dated 2026):
Entries after “also recorded” stand apart in the source; their conditions may differ.

What was measured:
[1] = Determination of fibres eluting from matrix (TEM of artificially chewed toffee-saliva); format: physicochemical; settings: toffee with assembled P11-4 (35 mg/ml), 3 mL artificial saliva, artificial chew 5 min
Experimental: Sample: • Place 1 toffee with or without assembled P11-4 (35 mg/ml) in artificial saliva 3 mL (cf. Example 2) • Artificial chew for 5 min in artificial mastication equipment. • Remove supernatant (saliva) Method TEM • Dilute sample (10 mg/mL) with H2O at a ratio of 1:63 • Place 1 μL of control solution on TEM-grid Sample • Place 20 μL of water on a parafilm • Place gently the TEM Grid with dark site facing upwards on the parafilm, close to the drop • Application of 10 μL sample on TEM carbon coated grids (hexagonal) • 10 min incubation • Remove unbound sample with a paper tissue • Put the grid into 3% Uranylacetate solution 20 ul • 40 sec incubation • Remove unbound Uranylacetate with a paper tissue • Wash the grid 2 times with distilled water • pipet 5 μL droplet on top of the grid and remove it • Dry it for 20 min at RT • Introduce sample into sample holder for TEM • Analyse @ 50 kV, Vacuum at least 9*10-6 hPa

[2] = cited from earlier work; for pH at which the peptide starts to undergo self-assembly: in solution

QQRFEWEFEQQ (self-assembling peptide P11-4)
assembled fibres of peptide in artificial saliva after mastication (TEM) [1]: distinct fibre bundle; also recorded: maintains its assembled form | pH at which the peptide starts to undergo self-assembly [2]: about 7.5 | assembly state ([2]; ionic strength corresponding to 150 mM NaCl, neutral pH (Carrick et al., 2007)): assembled

terminally modified P11-4: peptide P11-4 that is N-terminally acetylated and C-terminally amidated with a NH2-group (Ac-QQRFEWEFEQQ-NH2)
pH at which the peptide starts to undergo self-assembly [2]: about 7.5
